# Test results from the RNAGym collection of RNA variant scans (doi:10.1093/molbev/msab373).
# B1: Azoarcus group I ribozyme (parent)
# chain: GUGCCUUGCGCCGGGAAACCACGCAAGGGAUGGUGUCAAAUUCGGCGAAACCUAAGCGCCCGCCCGGGCGUAUGGCAACGCCGAGCCAAGCUUCGGCGCCUGCGCCGAUGAAGGUGUAGAGACUAGACGGCACCCACCUAAGGCAAACGCUAUGGUGAAGGCAUAGUCCAGGGAGUGGCGAAAGUCACACAAACCGG
# Variants of: B1
# Experiment: reverse-splicing fitness (ratio to wild type); higher = more active; in vitro selection; Mg2+ level not given
# Summary of the method: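 An in vitro group I ribozyme library with randomized positions was T7-transcribed and gel-purified. In triplicate, 10 pmol RNA in EPPS pH 7.5 was reacted with 50 pmoles of a 30-nt RNA substrate for 1 h at 37 °C across several added MgCl2 levels (1–48 mM), then stopped with EDTA. Products were reverse transcribed from a substrate-complementary primer, PCR-amplified and sequenced (HiSeq 4000). Fitness is a variant's read proportion after selection over that before, normalised to wild type.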
row,Variant,reverse-splicing fitness
1,C82U A120G C150G C169A,0.00923
2,C82U A120G C150G C169G,0.0077
3,C82U A120G C150G C169U,0.00921
4,C82U A120G A145G C169U U176G,0.00378
5,C82U A120G A145G C169U U176C,0.0187
6,C82U A120G A145G C169U U176A,0.0237
7,C82U A120U A145G C169A U176C,0.00239
8,C82U A120U A145G C169A U176A,0.0025
9,C82U A120U A145G C169A U176G,0.00152
10,C82U A120U A145C C150G C169A,0.00211
11,C82U A120U A145C C150G C169U,0.00275
12,C82U A120U A145C C150G C169G,0.00257
13,C82U A120G A145U C150G C169A,0.00915
14,C82U A120G A145U C150G C169U,0.00878
15,C82U A120G A145U C150G C169G,0.00815
16,C82U A120G A145U C150U C169A U176C,0.0085
17,C82U A120G A145U C150U C169A U176A,0.0106
18,C82U A120G A145U C150U C169A U176G,0.00326
19,C82U A120G C150G C169A U176C,0.00979
20,C82U A120G C150G C169A U176G,0.00547
21,C82U A120G C150G C169A U176A,0.00927

row,Variant,reverse-splicing fitness
1,C82U A120G A145G C150A C169A U176G,0.00457
2,C82U A120G A145G C150A C169A U176A,0.018
3,C82U A120G A145G C150A C169A U176C,0.0191
4,C82U A120G A145U C169G U176G,0.00314
5,C82U A120G A145U C169G U176A,0.0111
6,C82U A120G A145U C169G U176C,0.0138
7,C82U A120U A145G C150U C169U U176A,0.00396
8,C82U A120U A145G C150U C169U U176C,0.00389
9,C82U A120U A145G C150U C169U U176G,0.00198
10,C82U A120G A145U C150G C169U U176C,0.0108
11,C82U A120G A145U C150G C169U U176A,0.0132
12,C82U A120G A145U C150G C169U U176G,0.0036
13,C82U A120U A145C C150U C169G U176C,0.00188
14,C82U A120U A145C C150U C169G U176G,0.00153
15,C82U A120U A145C C150U C169G U176A,0.00259
16,C82U A120U A145G U176A,0.0429
17,C82U A120U A145G U176G,0.0114
18,C82U A120U A145G U176C,0.076
19,C82U A120U A145G C150A C169G,0.00351
20,C82U A120U A145G C150A C169A,0.00483
21,C82U A120U A145G C150A C169U,0.00334

row,Variant,reverse-splicing fitness
1,C82U A120U A145C C150G C169U U176G,0.00191
2,C82U A120U A145C C150G C169U U176A,0.00247
3,C82U A120U A145C C150G C169U U176C,0.00224
4,C82U A120U A145G C150U C169A,0.00495
5,C82U A120U A145G C150U C169U,0.00625
6,C82U A120U A145G C150U C169G,0.00546
7,C82U A120U A145G C150A C169G U176A,0.00525
8,C82U A120U A145G C150A C169G U176C,0.00372
9,C82U A120U A145G C150A C169G U176G,0.00193
10,C82U A120U A145C C150A C169U U176C,0.00195
11,C82U A120U A145C C150A C169U U176A,0.00218
12,C82U A120U A145C C150A C169U U176G,0.00151
13,C82U A120U A145G C169U U176C,0.00381
14,C82U A120U A145G C169U U176A,0.00293
15,C82U A120U A145G C169U U176G,0.00155
16,C82U A120G C169U U176G,0.0054
17,C82U A120G C169U U176A,0.0244
18,C82U A120G C169U U176C,0.0176
19,C82U A120G C150U C169U U176G,0.00509
20,C82U A120G C150U C169U U176A,0.0237
21,C82U A120G C150U C169U U176C,0.0185

row,Variant,reverse-splicing fitness
1,C82U A120G C150G,0.00711
2,C82U A120G C150U,0.0161
3,C82U A120G C150A,0.00924
4,C82U A120G A145U C150U U176C,0.0143
5,C82U A120G A145U C150U U176A,0.0102
6,C82U A120G A145U C150U U176G,0.00369
7,C82U A120U A145C C169G U176C,0.00167
8,C82U A120U A145C C169G U176A,0.00282
9,C82U A120U A145C C169G U176G,0.00143
10,C82U A120U A145G C169G U176A,0.00271
11,C82U A120U A145G C169G U176G,0.00136
12,C82U A120U A145G C169G U176C,0.00346
13,C82U A120U A145C C150G C169A U176G,0.00188
14,C82U A120U A145C C150G C169A U176C,0.00196
15,C82U A120U A145C C150G C169A U176A,0.00201
16,C82U A120G A145G C150G C169A,0.00944
17,C82U A120G A145G C150G C169G,0.00862
18,C82U A120G A145G C150G C169U,0.0101
19,C82U A120U A145G C150A U176C,0.0141
20,C82U A120U A145G C150A U176G,0.00354
21,C82U A120U A145G C150A U176A,0.0113
